Literature values, collected in PMC10612106.
pKd: −log10 of the molar value.

Target: MORC3 ATPase domain (Homo sapiens) (UniProt Q14149)

## MORC3 CW (from UniProt Q14149)
  pKd: 5.05
